# Results taken from paper PMC11761524 (bioRxiv, 2025).
# B1: Cyclin F loop mutant: Flag-Cyclin F mutant containing D504-T511 all changed to alanine (protein)
# chain: MGSGGVVHCRCAKCFCYPTKRRIRRRPRNLTILSLPEDVLFHILKWLSVEDILAVRAVHSQLKDLVDNHASVWACASFQELWPSPGNLKLFERAAEKGNFEAAVKLGIAYLYNEGLSVSDEARAEVNGLKASRFFSLAERLNVGAAPFIWLFIRPPWSVSGSCCKAVVHESLRAECQLQRTHKASILHCLGRVLSLFEDEEKQQQAHDLFEEAAHQGCLTSSYLLWESDRRTDVSDPGRCLHSFRKLRDYAAKGCWEAQLSLAKACANANQLGLEVRASSEIVCQLFQASQAVSKQQVFSVQKGLNDTMRYILIDWLVEVATMKDFTSLCLHLTVECVDRYLRRRLVPRYRLQLLGIACMVICTRFISKEILTIREAVWLTDNTYKYEDLVRMMGEIVSALEGKIRVPTVVDYKEVLLTLVPVELRTQHLCSFLCELSLLHTSLSAYAPARLAAAALLLARLTHGQTQPWTTQLWDLTGFSYEDLIPCVLSLHKKCFHDDAPKAAAAAAAAAVKQRFEDKRYGEISQEEVLSYSQLCAALGVTQDSPDPPTFLSTGEIHAFLSSPSGRRTKRKRENSLQEDRGSFVTTPTAELSSQEETLLGSFLDWSLDCCSGYEGDQESEGEKEGDVTAPSGILDVTVVYLNPEQHCCQESSDEEACPEDKGPQDPQALALDTQIPATPGPKPLVRTSREPGKDVTTSGYSSVSTASPTSSVDGGLGALPQPTSVLSLDSDSHTQPCHHQARKSCLQCRPPSPPESSVPQQQVKRINLCIHSEEEDMNLGLVRL
# modifications: left off: Flag, end not stated, kept
# Columns and labels:
# [1] = target: GST-Cyclin A (173–432) (UniProt P20248); assay: fluorescence polarisation
# Chain of UniProt P20248 (P20248 173-432): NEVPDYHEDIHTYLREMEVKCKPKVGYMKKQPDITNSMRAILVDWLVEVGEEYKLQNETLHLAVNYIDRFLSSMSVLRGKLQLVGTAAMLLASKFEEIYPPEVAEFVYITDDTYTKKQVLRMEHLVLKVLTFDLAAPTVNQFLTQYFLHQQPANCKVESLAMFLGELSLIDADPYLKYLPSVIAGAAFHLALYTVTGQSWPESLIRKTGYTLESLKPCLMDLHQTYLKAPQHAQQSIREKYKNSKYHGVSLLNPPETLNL
# [2] = target: strep-Cyclin F (1–546)-GST-Skp1 (1–163) (human) (UniProt P41002); assay: fluorescence polarisation
# [3] = test system: CP110; assay: Coimmunoprecipitation of Flag-Cyclin F with endogenous CP110 in HEK293T cells; type: cell-based; conditions: anti-Flag IP, Western blot, vs WT Cyclin F
# [4] = test system: CDC6; assay: Coimmunoprecipitation of Flag-Cyclin F with endogenous CDC6 in HEK293T cells; type: cell-based; conditions: anti-Flag IP, Western blot, vs WT Cyclin F
molecule,measurement,setting,value
E2F1 peptide R91E (unlabeled) (from UniProt Q01094 84-99),fold decrease in affinity against the wild-type E2F1 peptide,[1],12 fold
same,fold decrease in affinity against the wild-type E2F1 peptide,[2],41 fold
E2F1 peptide K89E (unlabeled) (from UniProt Q01094 84-99),fold decrease in affinity against the wild-type E2F1 peptide,[1],48 fold
same,fold decrease in affinity against the wild-type E2F1 peptide,[2],24 fold
E2F1 peptide D93R (unlabeled) (from UniProt Q01094 84-99),fold decrease in affinity against the wild-type E2F1 peptide,[1],3 fold
same,fold decrease in affinity against the wild-type E2F1 peptide,[2],3 fold
E2F1 peptide V88E (unlabeled) (from UniProt Q01094 84-99),fold decrease in affinity against the wild-type E2F1 peptide,[1],460 fold
same,fold decrease in affinity against the wild-type E2F1 peptide,[2],31 fold
B1,association with CP110 (coimmunoprecipitation),[3],weaker association was more apparent
same,association with CDC6 (coimmunoprecipitation),[4],weaker association was more apparent
